Measured values as given in US20180371086A1 (Gilead, published 2018).

How the values were obtained:
Assay in all cases: cell-based or functional assay
[1] = biological target: HIV-1 Env of virus MGRM-AG-007 (HIV-1)
[2] = biological target: HIV-1 Env of virus MGRM-AG-005 (HIV-1)
[3] = biological target: HIV-1 Env of virus MGRM-AG-001 (HIV-1)
[4] = biological target: HIV-1 Env of virus MGRM-AG-008 (HIV-1)
[5] = biological target: HIV-1 Env of virus MGRM-D-002 (HIV-1)
[6] = biological target: HIV-1 Env of virus MGRM-D-011 (HIV-1)
[7] = biological target: HIV-1 Env of virus MGRM-D-001 (HIV-1)
[8] = biological target: HIV-1 Env of virus MGRM-F1-010 (HIV-1)
[9] = biological target: HIV-1 Env of virus MGRM-F1-018 (HIV-1)
[10] = biological target: HIV-1 Env of virus MGRM-F1-012 (HIV-1)
[11] = biological target: HIV-1 Env of virus MGRM-F1-015 (HIV-1)
[12] = biological target: HIV-1 Env of virus MGRM-G-017 (HIV-1)
[13] = biological target: HIV-1 Env of virus MGRM-G-004 (HIV-1)
[14] = biological target: HIV-1 Env of virus MGRM-G-013 (HIV-1)
[15] = biological target: HIV-1 Env of virus MGRM-G-011 (HIV-1)
[16] = biological target: HIV-1 Env of virus MGRM-Chronic-B-004 (HIV-1)
[17] = biological target: HIV-1 Env of virus MGRM-Acute-B-005 (HIV-1)
[18] = biological target: HIV-1 Env of virus MGRM-Chronic-B-008 (HIV-1)
[19] = biological target: HIV-1 Env of virus MGRM-Chronic-B-010 (HIV-1)
[20] = biological target: HIV-1 Env of virus MGRM-Chronic-B-009 (HIV-1)
[21] = biological target: HIV-1 Env of virus MGRM-Acute-B-003 (HIV-1)
[22] = biological target: HIV-1 Env of virus MGRM-Acute-B-007 (HIV-1)
[23] = biological target: HIV-1 Env of virus MGRM-Acute-B-001 (HIV-1)
[24] = biological target: HIV-1 Env of virus MGRM-Chronic-B-012 (HIV-1)
[25] = biological target: HIV-1 Env of virus MGRM-Acute-B-004 (HIV-1)
[26] = biological target: HIV-1 Env of virus MGRM-Chronic-B-002 (HIV-1)
[27] = biological target: HIV-1 Env of virus MGRM-Chronic-B-005 (HIV-1)
[28] = biological target: HIV-1 Env of virus MGRM-Acute-B-006 (HIV-1)
[29] = biological target: HIV-1 Env of virus MGRM-Chronic-B-014 (HIV-1)
[30] = biological target: HIV-1 Env of virus MGRM-Chronic-B-022 (HIV-1)
[31] = biological target: HIV-1 Env of virus MGRM-C-026 (HIV-1)
[32] = biological target: HIV-1 Env of virus MGRM-C-011 (HIV-1)
[33] = biological target: HIV-1 Env of virus MGRM-C-006 (HIV-1)
[34] = biological target: HIV-1 Env of virus MGRM-C-027 (HIV-1)
[35] = biological target: HIV-1 Env of virus MGRM-C-004 (HIV-1)
[36] = biological target: HIV-1 Env of virus MGRM-C-016 (HIV-1)
[37] = biological target: HIV-1 Env of virus MGRM-C-007 (HIV-1)
[38] = biological target: HIV-1 Env of virus MGRM-C-020 (HIV-1)
[39] = biological target: HIV-1 Env of virus MGRM-A-014 (HIV-1)
[40] = biological target: HIV-1 Env of virus MGRM-A-003 (HIV-1)
[41] = biological target: HIV-1 Env of virus MGRM-A-010 (HIV-1)
[42] = biological target: HIV-1 Env of virus MGRM-A-006 (HIV-1)

B1: PGT121.60 hIgG1/hLambda (antibody)
heavy: QMQLQESGPGLVKPSETLSLTCSVSGASISDSYWSWIRRSPGKGLEWIGYVHKSGDTNYNPSLKSRVHLSLDTSKNQVSLSLTGVTAADSGKYYCARTLHGRRIYGIVAFNEWFTYFYMDVWGTGTQVTVSSASTKGPSVFPLAPSSKSTSGGTAALGCLVKDYFPEPVTVSWNSGALTSGVHTFPAVLQSSGLYSLSSVVTVPSSSLGTQTYICNVNHKPSNTKVDKKVEPKSCDKTHTCPPCPAPELLAGPDVFLFPPKPKDTLMISRTPEVTCVVVDVSHEDPEVKFNWYVDGVEVHNAKTKPREEQYNSTYRVVSVLTVLHQDWLNGKEYKCKVSNKALPLPEEKTISKAKGQPREPQVYTLPPSREEMTKNQVSLTCLVKGFYPSDIAVEWESNGQPENNYKTTPPVLDSDGSFFLYSKLTVDKSRWQQGNVFSCSVLHEALHSHYTQKSLSLSPGK
light: not shown
B1 was tested, and the “PGT121.60 IC50” value [1] was 0.108 µg/mL, the “PGT121.60 IC50” value [2] was 0.203 µg/mL and the “PGT121.60 IC50” value [3] was 1.44 µg/mL. The “PGT121.60 IC50” value [4] was 1.71 µg/mL, the “PGT121.60 IC50” value [5] was 0.0015 µg/mL and the “PGT121.60 IC50” value [6] was 0.0043 µg/mL. The “PGT121.60 IC50” value [7] was 0.431 µg/mL, the “PGT121.60 IC50” value [8] was 0.0125 µg/mL and the “PGT121.60 IC50” value [9] was 0.0201 µg/mL. For the same binder, the “PGT121.60 IC50” value [10] was 1.19 µg/mL, the “PGT121.60 IC50” value [11] was 11.6 µg/mL and the “PGT121.60 IC50” value [12] was 0.0255 µg/mL. The “PGT121.60 IC50” value [13] was 0.046 µg/mL, the “PGT121.60 IC50” value [14] was 1.5 µg/mL and the “PGT121.60 IC50” value [15] was 1.91 µg/mL. For the same binder, the “PGT121.60 IC50” value [16] was 0.0013 µg/mL, the “PGT121.60 IC50” value [17] was 0.0014 µg/mL and the “PGT121.60 IC50” value [18] was 0.0056 µg/mL. The “PGT121.60 IC50” value [19] was 0.0074 µg/mL, the “PGT121.60 IC50” value [20] was 0.0112 µg/mL and the “PGT121.60 IC50” value [21] was 0.0179 µg/mL. The “PGT121.60 IC50” value [22] was 0.0255 µg/mL, the “PGT121.60 IC50” value [23] was 0.0313 µg/mL and the “PGT121.60 IC50” value [24] was 0.0409 µg/mL. For the same binder, the “PGT121.60 IC50” value [25] was 0.0497 µg/mL, the “PGT121.60 IC50” value [26] was 0.0649 µg/mL and the “PGT121.60 IC50” value [27] was 0.072 µg/mL. The “PGT121.60 IC50” value [28] was 0.0966 µg/mL, the “PGT121.60 IC50” value [29] was 0.133 µg/mL and the “PGT121.60 IC50” value [30] was 11.5 µg/mL. For the same binder, the “PGT121.60 IC50” value [31] was 0.0004 µg/mL, the “PGT121.60 IC50” value [32] was 0.0012 µg/mL and the “PGT121.60 IC50” value [33] was 0.003 µg/mL. For the same binder, the “PGT121.60 IC50” value [34] was 0.0038 µg/mL, the “PGT121.60 IC50” value [35] was 0.0064 µg/mL and the “PGT121.60 IC50” value [36] was 0.0137 µg/mL. For the same binder, the “PGT121.60 IC50” value [37] was 0.199 µg/mL, the “PGT121.60 IC50” value [38] was 14.9 µg/mL and the “PGT121.60 IC50” value [39] was 0.001 µg/mL. The “PGT121.60 IC50” value [40] was 0.0865 µg/mL, the “PGT121.60 IC50” value [41] was 0.745 µg/mL and the “PGT121.60 IC50” value [42] was 4.05 µg/mL.
